Measured values taken from patent US20240123029A1.

Target: SARS-CoV-2 S protein trimer, His Tag (in house, EXPI293F cells) (SARS-CoV-2) (UniProt P0DTC2)

Sequence of Recombinant human mannose binding lectin (MBL) (P11226 21-248 limits assumed): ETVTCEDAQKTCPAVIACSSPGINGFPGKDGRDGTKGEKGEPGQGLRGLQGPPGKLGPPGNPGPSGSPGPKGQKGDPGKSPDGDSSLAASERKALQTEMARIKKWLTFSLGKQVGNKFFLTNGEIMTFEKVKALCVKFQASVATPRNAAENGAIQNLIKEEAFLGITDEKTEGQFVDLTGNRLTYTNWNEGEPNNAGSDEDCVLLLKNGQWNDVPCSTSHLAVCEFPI

Recombinant human mannose binding lectin (MBL) (from UniProt P11226 21-248)
Kd: 0.034 µM
koff: 0.00073 s⁻¹
kon: 21000 M⁻¹ s⁻¹
